Reference: US20220291209, “MOLECULAR TARGET IN CANCER” (The Regents of the University of California, published 2022)

Experiments:
MSI2 (Musashi-2) [1] = target: T1, MSI2 (Musashi-2) (UniProt Q96DH6 Q96DH6:1-328); test: TR-FRET/HTRF; 5 nM MSI2, 1.25 nM RNA; 150 mM NaCl, 25 mM HEPES pH 7.3, 1 mM DTT, 0.05% pluronic F-127, room temperature; settings: tags: His tag, LS Bio G2396; named Biotin5')
MSI2 (Musashi-2) [2] = target: T1, MSI2 (Musashi-2); test: competition; displaces NUMB-Biotin RNA from MSI2; titrated from 1000 nM; IC50 only in figure; settings: tags: His tag, LS Bio G2396
U1A [3] = target: T2, U1A (UniProt P09012 P09012:1-282); test: competition; displaces Target-Biotin RNA from U1A; titrated from 1000 nM; IC50 only in figure; settings: tags: His tag, LS Bio G19194-10
U1A [4] = target: T2, U1A; test: TR-FRET/HTRF; 5 nM U1A, 1.25 nM RNA; 150 mM NaCl, 25 mM HEPES pH 7.3, 1 mM DTT, 0.05% pluronic F-127, room temperature; settings: tags: His tag, LS Bio G19194-10; named Biotin5')

T1 sequence (Q96DH6 whole entry, one chain of several): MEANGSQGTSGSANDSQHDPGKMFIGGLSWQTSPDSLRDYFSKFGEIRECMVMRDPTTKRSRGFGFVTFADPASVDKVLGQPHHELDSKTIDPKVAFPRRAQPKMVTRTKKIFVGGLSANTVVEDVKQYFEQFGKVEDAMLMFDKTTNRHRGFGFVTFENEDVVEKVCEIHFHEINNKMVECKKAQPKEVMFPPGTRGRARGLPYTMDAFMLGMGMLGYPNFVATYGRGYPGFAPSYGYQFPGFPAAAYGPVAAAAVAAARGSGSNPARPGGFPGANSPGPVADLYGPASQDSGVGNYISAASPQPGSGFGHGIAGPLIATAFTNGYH
T2 sequence (P09012 whole entry, one chain of several): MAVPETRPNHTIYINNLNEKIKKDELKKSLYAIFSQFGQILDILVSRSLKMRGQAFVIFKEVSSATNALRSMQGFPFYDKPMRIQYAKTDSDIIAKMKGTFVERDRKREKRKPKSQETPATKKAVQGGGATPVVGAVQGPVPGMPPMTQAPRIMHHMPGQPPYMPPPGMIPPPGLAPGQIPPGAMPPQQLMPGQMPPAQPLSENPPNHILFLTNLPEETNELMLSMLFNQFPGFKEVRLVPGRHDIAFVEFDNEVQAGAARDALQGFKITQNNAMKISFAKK

Question: Does UAGGUAGUAGUUUUA (ssRNA) [NUMB-Biotin RNA probe] bind (MSI2 (Musashi-2) [1])?
Answer: Result: binds

Question: Does UAGGUAGUAGUUUUA (ssRNA) [NUMB-CTRL RNA (unlabelled)] bind (MSI2 (Musashi-2) [2])?
Answer: Result: binds

Question: Does AUUGCACUCCUUUUA (ssRNA) [U1A Target-CTRL RNA (unlabelled)] bind (U1A [3])?
Answer: Result: binds

Question: Does AUUGCACUCCUUUUA (ssRNA) [U1A Target-Biotin RNA probe] bind (U1A [4])?
Answer: Result: binds
